Measured values: publication PMC8053128, “Structures of Neisseria gonorrhoeae MtrR-operator complexes reveal molecular mechanisms of DNA recognition and antibiotic resistance-conferring clinical mutations” (Nucleic Acids Research, 2021)

Legend:
[1] = biological target: the molecule itself; test: crystal structure; MtrR dimer bound to a 21-mer operator oligoduplex (Semet-MtrR with rpoH, native MtrR with mtrCDE); hanging drop, 200 mM calcium acetate, 27% PEG 8000, 100 mM Tris pH 7.5
[2] = biological target: the molecule itself; test: SEC; elution of purified point mutants compared with WT MtrR (Supplementary Figure S4); S200 column named in the purification

| Protein | binding result [1] | stoichiometry N [2] |
| --- | --- | --- |
| Selenomethionine-derivatized MtrR (natural protein, selenomethionine-derivatized, MtrR, TetR-family transcriptional repressor of Neisseria gonorrhoeae, product of the mtrR gene; Same construct as m1 with methionines as selenomethionine; also called Semet-MtrR; not shown: His6, N-terminal, cleaved) MRKTKTEALKTKEHLMLAALETFYRKGIARTSLNEIAQAAGVTRGALYWHFKNKEDLFDALFQRICDDIENCIAQDAADAEGGSWTVFRHTLLHFFERLQSNDIHYKFHNILFLKCEHTEQNAAVIAIARKHQAIWREKITAVLTEAVENQDLADDLDKETAVIFIKSTLDGLIWRWFSSGESFDLGKTAPRIIGIMMDNLENHPCLRRK | binds | – |
| MtrR(T43S) (natural protein, Neisseria gonorrhoeae, MtrR of Neisseria gonorrhoeae, point mutant; Made by site-directed mutagenesis of the mtrR-pMCSG7 construct; source: expressed from the pMCSG7 vector, purified (Ni-NTA, TEV cleavage, Ni-NTA, S200 size exclusion); not shown: His6, N-terminal, cleaved) MRKTKTEALKTKEHLMLAALETFYRKGIARTSLNEIAQAAGVSRGALYWHFKNKEDLFDALFQRICDDIENCIAQDAADAEGGSWTVFRHTLLHFFERLQSNDIHYKFHNILFLKCEHTEQNAAVIAIARKHQAIWREKITAVLTEAVENQDLADDLDKETAVIFIKSTLDGLIWRWFSSGESFDLGKTAPRIIGIMMDNLENHPCLRRK | – | 2 |
| MtrR(G45A) (natural protein, Neisseria gonorrhoeae, MtrR of Neisseria gonorrhoeae, point mutant; Made by site-directed mutagenesis of the mtrR-pMCSG7 construct; source: expressed from the pMCSG7 vector, purified (Ni-NTA, TEV cleavage, Ni-NTA, S200 size exclusion); not shown: His6, N-terminal, cleaved) MRKTKTEALKTKEHLMLAALETFYRKGIARTSLNEIAQAAGVTRAALYWHFKNKEDLFDALFQRICDDIENCIAQDAADAEGGSWTVFRHTLLHFFERLQSNDIHYKFHNILFLKCEHTEQNAAVIAIARKHQAIWREKITAVLTEAVENQDLADDLDKETAVIFIKSTLDGLIWRWFSSGESFDLGKTAPRIIGIMMDNLENHPCLRRK | – | 2 |
| MtrR(W49F) (natural protein, Neisseria gonorrhoeae, MtrR of Neisseria gonorrhoeae, point mutant; Made by site-directed mutagenesis of the mtrR-pMCSG7 construct; source: expressed from the pMCSG7 vector, purified (Ni-NTA, TEV cleavage, Ni-NTA, S200 size exclusion); not shown: His6, N-terminal, cleaved) MRKTKTEALKTKEHLMLAALETFYRKGIARTSLNEIAQAAGVTRGALYFHFKNKEDLFDALFQRICDDIENCIAQDAADAEGGSWTVFRHTLLHFFERLQSNDIHYKFHNILFLKCEHTEQNAAVIAIARKHQAIWREKITAVLTEAVENQDLADDLDKETAVIFIKSTLDGLIWRWFSSGESFDLGKTAPRIIGIMMDNLENHPCLRRK | – | 2 |
| MtrR(T43A) (natural protein, Neisseria gonorrhoeae, MtrR of Neisseria gonorrhoeae, point mutant; Made by site-directed mutagenesis of the mtrR-pMCSG7 construct; source: expressed from the pMCSG7 vector, purified (Ni-NTA, TEV cleavage, Ni-NTA, S200 size exclusion); not shown: His6, N-terminal, cleaved) MRKTKTEALKTKEHLMLAALETFYRKGIARTSLNEIAQAAGVARGALYWHFKNKEDLFDALFQRICDDIENCIAQDAADAEGGSWTVFRHTLLHFFERLQSNDIHYKFHNILFLKCEHTEQNAAVIAIARKHQAIWREKITAVLTEAVENQDLADDLDKETAVIFIKSTLDGLIWRWFSSGESFDLGKTAPRIIGIMMDNLENHPCLRRK | – | 2 |
| MtrR(T11A) (natural protein, Neisseria gonorrhoeae, MtrR of Neisseria gonorrhoeae, point mutant; Made by site-directed mutagenesis of the mtrR-pMCSG7 construct; source: expressed from the pMCSG7 vector, purified (Ni-NTA, TEV cleavage, Ni-NTA, S200 size exclusion); not shown: His6, N-terminal, cleaved) MRKTKTEALKAKEHLMLAALETFYRKGIARTSLNEIAQAAGVTRGALYWHFKNKEDLFDALFQRICDDIENCIAQDAADAEGGSWTVFRHTLLHFFERLQSNDIHYKFHNILFLKCEHTEQNAAVIAIARKHQAIWREKITAVLTEAVENQDLADDLDKETAVIFIKSTLDGLIWRWFSSGESFDLGKTAPRIIGIMMDNLENHPCLRRK | – | 2 |
| MtrR(W49A) (natural protein, Neisseria gonorrhoeae, MtrR of Neisseria gonorrhoeae, point mutant; Made by site-directed mutagenesis of the mtrR-pMCSG7 construct; source: expressed from the pMCSG7 vector, purified (Ni-NTA, TEV cleavage, Ni-NTA, S200 size exclusion); not shown: His6, N-terminal, cleaved) MRKTKTEALKTKEHLMLAALETFYRKGIARTSLNEIAQAAGVTRGALYAHFKNKEDLFDALFQRICDDIENCIAQDAADAEGGSWTVFRHTLLHFFERLQSNDIHYKFHNILFLKCEHTEQNAAVIAIARKHQAIWREKITAVLTEAVENQDLADDLDKETAVIFIKSTLDGLIWRWFSSGESFDLGKTAPRIIGIMMDNLENHPCLRRK | – | 2 |
| MtrR wild type (natural protein, MtrR, TetR-family transcriptional repressor of Neisseria gonorrhoeae, product of the mtrR gene; also called WT MtrR; MtrR WT; source: expressed from the pMCSG7 vector, purified (Ni-NTA, TEV cleavage, Ni-NTA, S200 size exclusion); not shown: His6, N-terminal, cleaved) MRKTKTEALKTKEHLMLAALETFYRKGIARTSLNEIAQAAGVTRGALYWHFKNKEDLFDALFQRICDDIENCIAQDAADAEGGSWTVFRHTLLHFFERLQSNDIHYKFHNILFLKCEHTEQNAAVIAIARKHQAIWREKITAVLTEAVENQDLADDLDKETAVIFIKSTLDGLIWRWFSSGESFDLGKTAPRIIGIMMDNLENHPCLRRK | – | 2 |
| MtrR(Y48F) (natural protein, Neisseria gonorrhoeae, MtrR of Neisseria gonorrhoeae, point mutant; Made by site-directed mutagenesis of the mtrR-pMCSG7 construct; source: expressed from the pMCSG7 vector, purified (Ni-NTA, TEV cleavage, Ni-NTA, S200 size exclusion); not shown: His6, N-terminal, cleaved) MRKTKTEALKTKEHLMLAALETFYRKGIARTSLNEIAQAAGVTRGALFWHFKNKEDLFDALFQRICDDIENCIAQDAADAEGGSWTVFRHTLLHFFERLQSNDIHYKFHNILFLKCEHTEQNAAVIAIARKHQAIWREKITAVLTEAVENQDLADDLDKETAVIFIKSTLDGLIWRWFSSGESFDLGKTAPRIIGIMMDNLENHPCLRRK | – | 2 |
| MtrR(H50A) (natural protein, Neisseria gonorrhoeae, MtrR of Neisseria gonorrhoeae, point mutant; Made by site-directed mutagenesis of the mtrR-pMCSG7 construct; source: expressed from the pMCSG7 vector, purified (Ni-NTA, TEV cleavage, Ni-NTA, S200 size exclusion); not shown: His6, N-terminal, cleaved) MRKTKTEALKTKEHLMLAALETFYRKGIARTSLNEIAQAAGVTRGALYWAFKNKEDLFDALFQRICDDIENCIAQDAADAEGGSWTVFRHTLLHFFERLQSNDIHYKFHNILFLKCEHTEQNAAVIAIARKHQAIWREKITAVLTEAVENQDLADDLDKETAVIFIKSTLDGLIWRWFSSGESFDLGKTAPRIIGIMMDNLENHPCLRRK | – | 2 |
| MtrR(R44A) (natural protein, Neisseria gonorrhoeae, MtrR of Neisseria gonorrhoeae, point mutant; Made by site-directed mutagenesis of the mtrR-pMCSG7 construct; source: expressed from the pMCSG7 vector, purified (Ni-NTA, TEV cleavage, Ni-NTA, S200 size exclusion); not shown: His6, N-terminal, cleaved) MRKTKTEALKTKEHLMLAALETFYRKGIARTSLNEIAQAAGVTAGALYWHFKNKEDLFDALFQRICDDIENCIAQDAADAEGGSWTVFRHTLLHFFERLQSNDIHYKFHNILFLKCEHTEQNAAVIAIARKHQAIWREKITAVLTEAVENQDLADDLDKETAVIFIKSTLDGLIWRWFSSGESFDLGKTAPRIIGIMMDNLENHPCLRRK | – | 2 |
